Results: patent publication US20160304578A1 (XYPHOS BIOSCIENCES, published 2016)
Changes are numbered by the printed parent chain. In names and notes the source's numbering stands.

B1: α1-α2 variant 16 (designed binder)
chain: EPHSLRYNLTVLSWDGSVQSGFLTEVHLDGQPFLRCDRQKCRAKPQGQWAEDVLGNKTWDRETRDLTGWGKDLRMTLAHIKDQKEGLHSLQEIRVCEIHEDNSTRSSQHFYYDGELFLSQNLETLEWTMPQSSRAQTLAMNVRNFLKEDAMETDTHYHAMRADCLQELRRYLKSGVVLRRTVPPMVQVTRSEASGGSGDRVTITCRASQDVSTAVAWYQQKPGKAPKLLIYSASFLYSGVPSRFSGSGSGTDFTLTISSLQPEDFATYYCQQSYTTPPTFGQGTKVEIKGGSSRSSSSGGGGSGGGGEVQLVESGGGLVQPGGSLRLSCAASGFTFTSTGISWVRQAPGKGLEWVGRIYPTNGSTNYADSVKGRFTISADTSKNTAYLQMNSLRAEDTAVYYCARTYGIYDLYVDYTEYVMDYWGQGTLVTVSSGGSSRSSSSGGGGSGGGGDIQMTQSPSSLSASGGSGQITVTCRASGFYPWNITLSWRQDGVSLSHDTQQWGDVLPDGQGTYQTWVATRISQGEEQRFTCYMEHSGQHSTHPVPSGKGSHHHHHH
B2: α1-α2 variant 17 (designed binder)
chain: B1 chain with G68L
B3: α1-α2 variant 48 (designed binder)
chain: B1 chain with E152A, H158I, Q166A
notes: Expressed in HEK293 (Expi293)
B4: α1-α2 variant 20 (designed binder)
chain: B1 chain with G68A, E152Q, H158R, R161H, Q166F
notes: Expressed in HEK293 (Expi293)
B5: α1-α2 variant 25 (designed binder)
chain: B1 chain with Q166S
notes: Expressed in HEK293 (Expi293)
B6: α1-α2 variant 18 (designed binder)
chain: B1 chain with S20P, G68L
B7: WT α1-α2 soluble MICA protein (ligand, UniProt Q29983 24-299, looked up)
chain: EPHSLRYNLTVLSWDGSVQSGFLTEVHLDGQPFLRCDRQKCRAKPQGQWAEDVLGNKTWDRETRDLTGNGKDLRMTLAHIKDQKEGLHSLQEIRVCEIHEDNSTRSSQHFYYDGELFLSQNLETKEWTMPQSSRAQTLAMNVRNFLKEDAMKTKTHYHAMHADCLQELRRYLKSGVVLRRTVPPMVNVTRSEASEGNITVTCRASGFYPWNITLSWRQDGVSLSHDTQQWGDVLPDGNGTYQTWVATRICQGEEQRFTCYMEHSGNHSTHPVPSGK
notes: also called WT MICA; WT NKG2DL
B8: K165S (designed binder)
α1-α2 domain displayed on M13 phage (pIII fusion): AAEPHSLWYNFTIIHLPRHGQQWCEVQSQVDQKNFLSYDCGSDKVLSMGHLEEQLYATDAWGKQLEMLREVGQRLRLELADTELEDFTPSGPLTLQVRMSCESEADGYIRGSWQFSFDGRKFLLFDSNNRKWTVVHAGARRMKEKWEKDSGLTTFFKMVSMRDCSSWLRDFLMHRKKRLEPTAPPMV
B9: R162G (designed binder)
α1-α2 domain displayed on M13 phage (pIII fusion): B8 α1-α2 domain displayed on M13 phage (pIII fusion) with S103C, R162G, S165K
B10: K165P (designed binder)
α1-α2 domain displayed on M13 phage (pIII fusion): B8 α1-α2 domain displayed on M13 phage (pIII fusion) with S165P
B11: R80L (designed binder)
α1-α2 domain displayed on M13 phage (pIII fusion): AAEPHSLSYDITVIPKFRPGPRWCAVQGQVDEKTFLHYDCGNKTVTPVSPLGKKLNVTTAWKAQNPVLREVVDILTEQLLDIQLENYTPKEPLTLQARMSCEQKAEGHSSGSWQFSFDGQIFLLFDSEKRMWTTVHPGARKMKEKWENDKVVAMSFHYFSMGDCIGWLEDFLMGMDSTLEPSAGAPPMV
B12: V152L (designed binder)
α1-α2 domain displayed on M13 phage (pIII fusion): B11 α1-α2 domain displayed on M13 phage (pIII fusion) with L80R, V152L
B13: V151D (designed binder)
α1-α2 domain displayed on M13 phage (pIII fusion): B11 α1-α2 domain displayed on M13 phage (pIII fusion) with S8C, L80R, V151D
B14: biotinylated human NKG2D (receptor, UniProt P26718 78-216, looked up)
chain: FLNSLFNQEVQIPLTESYCGPCPKNWICYKNNCYQFFDESKNWYESQASCMSQNASLLKVYSKEDQDLLKLVKSYHWMGLVHIPTNGSWQWEDGSILSPNLLTIIEMQKGDCALYASSFKGYIENCSTPNTYICMQRTV
modifications: biotinylated (site not stated)
notes: also called recombinant biotinylated NKG2D

Columns and labels:
[1] = target: T1, NKG2D on the human NK cell line NKL (human, UniProt P26718 1-216); assay: cell-based or functional assay
T1 sequence (looked up): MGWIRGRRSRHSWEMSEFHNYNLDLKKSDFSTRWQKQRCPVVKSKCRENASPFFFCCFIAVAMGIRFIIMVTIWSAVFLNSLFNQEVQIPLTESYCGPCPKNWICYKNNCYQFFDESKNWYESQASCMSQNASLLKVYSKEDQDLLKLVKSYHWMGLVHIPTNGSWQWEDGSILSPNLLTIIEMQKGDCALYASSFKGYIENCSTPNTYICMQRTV

biotinylated human NKG2D [2] = target: B14; assay: biolayer interferometry (Octet), Kd = kOFF/kON
Experimental: (§1) In order to characterize the NKG2D binding affinities, both the on-rates and off-rates for the three α1-α2 variant NKG2DLs binding to surface-coated biotinylated human NKG2D were measured using biolayer interferometry (Octet). Binding titrations were performed for each protein using a titration range of 1-100 nM, and the kinetic data were fitted to obtain on-rates, off-rates, and equilibrium binding constants.

biotinylated human NKG2D [3] = target: B14; assay: biolayer interferometry (Octet), biotinylated human NKG2D; the reference is not named
Experimental: as §1

biotinylated human NKG2D [4] = target: B14; assay: biolayer interferometry (Octet), surface-coated biotinylated human NKG2D, titration 1-100 nM
Experimental: as §1

biotinylated human NKG2D [5] = target: B14; assay: biolayer interferometry (Octet), biotinylated human NKG2D; Table 5 compared with Table 3
Experimental: as §1

human NKG2D-Fc [6] = target: T2, human NKG2D-Fc (human, UniProt P26718 78-216, limits assumed); assay: competition ELISA: inhibits 2 nM human NKG2D-Fc binding to plate-coated WT sMICA
T2 construct: not shown: Fc part
T2 sequence (looked up): B14 chain

human NKG2D-Fc [7] = target: T2, human NKG2D-Fc; assay: phage ELISA: ULBP3 variant displayed on phage titrated against NKG2D
human NKG2D-Fc [8] = target: T2, human NKG2D-Fc; assay: phage ELISA: ULBP2 variant displayed on phage titrated against NKG2D
[9] = target: B7; assay: biolayer interferometry (Octet), surface-coated biotinylated human NKG2D, 100 nM protein
[10] = target: B7; assay: biolayer interferometry (Octet), Kd = kOFF/kON

B1 was tested, and the “killing of FGFR3-expressing P815 target cells by NKL cells (calcein-release assay), fold over WT at 0.78 nM” value [1] was ~15 fold.

With B2 the “killing of FGFR3-expressing P815 target cells by NKL cells (calcein-release assay), fold over WT at 0.78 nM” value [1] was ~15 fold.

For B3, the Kd (biotinylated human NKG2D [2]) was 15 nM, the “fold reduction in NKG2D binding affinity” value (biotinylated human NKG2D [3]) was 250 fold and the koff (biotinylated human NKG2D [4]) was 0.003 s⁻¹. It also gave a kon (biotinylated human NKG2D [4]) of 200000 M⁻¹ s⁻¹.

In the case of B4, the Kd (biotinylated human NKG2D [2]) is reported as 0.083 nM, the koff (biotinylated human NKG2D [4]) is reported as 3e-05 s⁻¹ and the kon (biotinylated human NKG2D [4]) is reported as 360000 M⁻¹ s⁻¹.

With B5 the “fold enhancement in equilibrium binding affinity against variant 16” value (biotinylated human NKG2D [5]) was 8 fold, the “EC50 for cell killing, fold improvement over variant 16” value [1] was ~5 fold and the “killing of FGFR3-expressing P815 target cells by NKL cells (calcein-release assay), fold over variant 16 at 0.2 nM” value [1] was ~3 fold. The Kd (biotinylated human NKG2D [2]) was 0.062 nM, the koff (biotinylated human NKG2D [4]) was 2.9e-05 s⁻¹ and the kon (biotinylated human NKG2D [4]) was 470000 M⁻¹ s⁻¹.

For B6, the “killing of FGFR3-expressing P815 target cells by NKL cells (calcein-release assay), fold over WT at 0.78 nM” value [1] was ~15 fold.

In the case of B7, the IC50 (human NKG2D-Fc [6]) is reported as 19.4 nM.

In the case of B8, the “EC50 (read off the curve)” value (human NKG2D-Fc [7]) is reported as ~0.002 OD268 (phage).

For B9, the “EC50 (read off the curve)” value (human NKG2D-Fc [7]) was ~0.005 OD268 (phage).

With B10 the “EC50 (read off the curve)” value (human NKG2D-Fc [7]) was ~0.004 OD268 (phage).

In the case of B11, the “EC50 (read off the curve)” value (human NKG2D-Fc [8]) is reported as ~0.01 OD268 (phage).

B12 was tested, and the “EC50 (read off the curve)” value (human NKG2D-Fc [8]) was ~0.01 OD268 (phage).

In the case of B13, the “EC50 (read off the curve)” value (human NKG2D-Fc [8]) is reported as ~0.01 OD268 (phage).

B14 was tested, and the koff [9] was 0.0018 s⁻¹, the kon [9] was 130000 M⁻¹ s⁻¹ and the Kd [10] was 13.8 nM.
